Data on 2 molecules can be found in paper PMC9636275 (Nature Communications, 2022).

One series has as its system GltA, PncB. Nature of the series: Lactylation reaction of recombinant proteins by YiaC, immunoblotting. It counts as biochemical, E. coli. As to conditions: 15 μM YiaC, 20 μM substrate, lactyl-CoA 1 mM, 25 °C, 10 h.
The subject of series [1] is YiaC. Nature of the series: Kinetic parameters of YiaC, MALDI-TOF MS. Type of series: biochemical, E. coli. As to conditions: for kcat: peptide from PncB, MALDI-TOF MS. Here is the method: (§1) This method was described previously. […] Meanwhile, YiaC was incubated with unmodified peptide ([…], from PncB) in the YiaC reaction buffer. The concentrations of the peptides were 5, 10, 16, 32, 60, and 285 uM, and reaction time were 1, 5, 15, and 30 min. […] 0.1 μl samples mixed with 2,5-dihydroxybenzoic acid (DHB) were analyzed by MS. An acceleration voltage of 20 kV was used. MS data were analyzed using FlexAnalysis software for spectral processing and peak detection. The enzyme kinetics were analyzed by Prism GraphPad 8.0 software.

In series [2] the test system is YiaC. Nature of the series: YiaC lactylation/acetylation of synthetic peptide, LC-MS. Type of series: biochemical, E. coli. Conditions: 50 μM TICHDKAFVR, 5 μM YiaC, 2 h.
Another series concerns whole-cell lysates. Nature of the series: Immunoblotting of lysine acylation in whole-cell lysates of overexpressing or deficient strains. Type of series: cell-based, E. coli. As to conditions: immunoblot; for Kla level: overexpression in E. coli BL21 (λDE3) vs empty pET28a, LB 37 °C. How it is done: All the anti-acyllysine antibodies were purchased from PTM Biolabs Inc. All the synthetic peptides were generated by SciLight Biotechnology, LLC. Antibodies (all diluted 1:1000) and other reagents are listed in Supplementary Data 7.
This method was performed as described previously. In detail, plasmids were constructed to express proteins in E. coli. We used pEASY®-Basic Seamless Cloning and Assembly Kit (TRANS) to construct the plasmids of pET28a-cisY, pET28a-pncB, pET28a-gpmA, pET28a-mdh, pET28a-pykF, and pBR322-pykF-His tag. For mutation, we used the Fast Mutagenesis System (TRANS) to construct the vectors containing point mutated genes. All primers used for PCR are listed in Supplementary Data 7. The constructed vectors of pET28a were transformed into E. coli BL21 (λDE3) for overexpressing strains. The constructed vectors of pBR322 were transformed into E. coli MG1655 and cultured in LB medium containing ampicillin (Amp, 50 μg ml^–1), at 37 °C in shaken flasks at 220 rpm. overnight.
Next, cells were induced with 0.05 mM IPTG at 16 °C overnight followed by harvesting of whole-cell lysates for immunoblotting or protein purification. The proteins were harvested from cultured cells by lysis buffer (20 mM Tris-HCl, pH 8.0, 10 mM MgCl2, 1 mg ml^–1 lysozyme, 50 U ml^–1 nuclease). Then the proteins were mixed with HisPur Ni-NTA Resin and washed by wash buffer (20 mM Na3PO4, 300 mM NaCl, 25 mM imidazole, pH 7.4), the overexpressed proteins were eluted with elution buffer (20 mM Na3PO4, 300 mM NaCl, 250 mM imidazole, PH 7.4). The elution was collected and concentrated using an Amicon Ultra-0.5 Centrifugal Filter Device in storage buffer (100 mM HEPES, 10 mM MgCl2, 7.7 mM KCl, pH 7.0).
For orientation: In western blotting, separated proteins are transferred to a membrane and probed.

Series [3] has as its target T1, CobB (Escherichia coli, UniProt P75960).
T1 sequence (P75960 1-279): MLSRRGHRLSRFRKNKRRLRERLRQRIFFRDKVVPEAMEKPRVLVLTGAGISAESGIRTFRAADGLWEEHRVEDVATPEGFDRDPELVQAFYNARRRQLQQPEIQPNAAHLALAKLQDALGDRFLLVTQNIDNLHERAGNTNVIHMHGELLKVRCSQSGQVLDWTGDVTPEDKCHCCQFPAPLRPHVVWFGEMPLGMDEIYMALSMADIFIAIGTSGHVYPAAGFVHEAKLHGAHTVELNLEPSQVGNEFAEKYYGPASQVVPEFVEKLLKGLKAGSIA
As to conditions: for kcat: 37 °C, MALDI-TOF MS, mean ± SEM; for kcat / kcat/Km: n = 3. Here is the method:
as §1

The target of series [4] is T1, CobB. As to conditions: 50 μM peptide, 1 μM CobB, pH 8.5, 37 °C, 2 h; with 1 mM NAD^+ unless stated.
The test system of the next series is PykF. As to conditions: in vitro; result in words.
The next series relates to PykF, GpmA, Mdh. As to conditions: 15 μM CobB, 20 μM substrate, 25 °C, 10 h. How it is done:
The purified recombinant YiaC (15 μM) and candidate substrate proteins (GltA, PncB, 20 μM) were incubated in YiaC reaction buffer at 25 °C for 10 h. […] The reaction products were analyzed by Western blotting with anti-lactylation.

[5] abbreviates: overexpression in E. coli BL21 (λDE3) vs pET28a.
Setting [6] is: Deacetylation, Michaelis-Menten best fit, Supplementary Data 2.
[7] abbreviates: deacetylation, AETAEK(ac)YGDEQVK.
[8] abbreviates: delactylation, AETAEK(la)YGDEQVK.

Entries after “also recorded” stand apart in the source; their conditions may differ. Like-named read-outs stand apart in the source and are kept apart here.

In general, Km refers to the substrate concentration at which the rate is half of its maximum. One may read the kcat/Km as the turnover number divided by the Michaelis constant. The kcat is the maximal rate divided by the concentration of active sites.

B1: YiaC: GNAT family protein; lysine lactylase (protein, UniProt P37664 1-146, looked up)
Peptidyl-lysine …: MIREAQRSELPAILELWLESTTWGHPFIKANYWRDCIPLVRDAYLANAQNWVWEEDGKLLGFVSIMEGRFLAAMFVAPKAVRRGIGKALMQYVQQRHPHLMLEVYQKNQPAINFYQAQGFHIVDCAWQDETQLPTWIMSWPVVQTL
For B1, the “lactylation of candidate proteins” value with GltA, PncB is “can effectively lactylate citrate synthase (GltA) and nicotinate phosphoribosyltransferase (PncB)”. Also, the Vmax in the series on YiaC [1] (Acetylation, Michaelis-Menten best fit, Supplementary Data 2) is recorded as 0.005773; with YiaC [1] (Lactylation, Michaelis-Menten best fit, Supplementary Data 2) it was 0.01667. The Km turned out to be 28.7 µM with YiaC [1] (Acetylation, Michaelis-Menten best fit, Supplementary Data 2, read-out: Km); 26.6 µM in the series on YiaC [1] (Lactylation, Michaelis-Menten best fit, Supplementary Data 2, read-out: Km); 28.7 ± 1.2 µM in the series on YiaC [1] (acetylation, peptide from PncB 5-285 μM, mean ± SEM, n = 3, read-out: Km for peptide); 26.6 ± 1.1 µM in the series on YiaC [1] (lactylation, peptide from PncB 5-285 μM, mean ± SEM, n = 3, read-out: Km for peptide). The catalytic efficiency (kcat/Km) in the series on YiaC [1] (acetylation, n = 3) was 8000 M⁻¹ s⁻¹; in the series on YiaC [1] (lactylation, n = 3), 36000 M⁻¹ s⁻¹. Moreover, the kcat in the series with YiaC [1] (acetylation, mean ± SEM, n = 3) amounted to 0.23 ± 0.04 s⁻¹; in the series with YiaC [1] (lactylation, mean ± SEM, n = 3), 0.97 ± 0.03 s⁻¹. Also, the “lactylation of peptide by YiaC” value in the series with YiaC [2] (0.1 mM lactyl-CoA, pH 7, 37 °C) is listed as “can catalyze lactylation in vitro”. Moreover, the “lactylation compared with acetylation by YiaC” value in the series with YiaC [2] (37 °C) is “likely more efficient for lactylation”. Further, in the series with whole-cell lysates, the Kla level entry is “extensive and obvious increase in Kla levels”. Further, the Kac level entry in the series on whole-cell lysates (setting [5]) is listed as “could upregulate Kac”. Besides, in the series with whole-cell lysates (setting [5]), the succinylation level result was “did not cause a change in succinylation”.

B2: CobB: NAD-dependent deacylase; lysine delactylase (protein)
chain: T1 sequence (P75960 1-279)
modifications: left off: His tag (from the vector pET28a and the Ni-NTA purification), end not stated, state not stated
notes: NAD-dependent deacylase; lysine delactylase
As for B2, the Km in the series with CobB [3] (setting [6]) came out at 25.4 µM. The Vmax with CobB [3] (setting [6]) worked out at 0.01822; in the series with CobB [3] (Delactylation, Michaelis-Menten best fit, Supplementary Data 2), 0.02447. The values for the kcat with CobB [3] (setting [7]) and in the series with CobB [3] (setting [8]) were 0.97 ± 0.02 s⁻¹ and 0.99 ± 0.04 s⁻¹, respectively. Further, the kcat/Km was 52000 M⁻¹ s⁻¹ with CobB [3] (setting [7]) and 39000 M⁻¹ s⁻¹ in the series with CobB [3] (setting [8]). Besides, the “delactylation of peptide by CobB” value with CobB [4] is on record as “efficiently catalyzed the hydrolysis of the lactyl peptide in the presence of NAD^+; also recorded: the delactylated peptide was not detected in the reaction without NAD^+”. In addition, the “PykF activity after CobB erasing K382la” value in the series on PykF is “enhanced PykF activity in vitro”. The “delactylation of candidate proteins” value in the series with PykF, GpmA, Mdh was “can clearly delactylate pyruvate kinase I (PykF), 2,3-bisphosphoglycerate-dependent phosphoglycerate mutase (GpmA) and malate dehydrogenase (Mdh) in vitro”. For the same molecule, the Kla level entry with whole-cell lysates is “significant decrease in Kla levels”.
